Assay results reported in paper PMC10350833.

Columns and labels:
[1] = target: GFP-p62^S349E (human) (UniProt Q13501)
[2] = target: GFP-p62^S349A (human) (UniProt Q13501)

Substance: mCherry-tagged KEAP1 (from UniProt Q14145 1-624) (natural protein)
- FLIP: signal intensity of mCherry-KEAP1 in GFP-p62 bodies of the non-bleached area, percent of the baseline value at 30 min after photobleaching (efflux of KEAP1) [1]: 72%
- FLIP: signal intensity of mCherry-KEAP1 in GFP-p62 bodies of the non-bleached area, percent of the baseline value at 30 min after photobleaching (efflux of KEAP1) [2]: 58.2%
